Data: publication doi:10.1101/2024.08.21.608941

Columns and labels:
[1] = biological target: M. tuberculosis Eσ^B holoenzyme (M. tuberculosis) (UniProt P9WGZ1); assay: cryo-EM particle classification
[2] = biological target: M. tuberculosis Eσ^B holoenzyme (M. tuberculosis) (UniProt P9WGZ1); assay: negative-stain electron microscopy
[3] = biological target: RNAP core deltaFT;sigB Cys151/292 (DY547P1/DY647P1 labelled) (Mycobacterium …, UniProt P9WGZ1;P9WGY9;P9WGY7;P9WGY5;P9WGI5 1-347;1-810+826-1178;1-1316;1-110;1-323, internal_change|T151C;G292C); assay: smFRET
[4] = biological target: RNAP core deltaFT;sigB Cys151/292 (DY547P1/DY647P1 labelled);RbpA (Mycobacterium …, UniProt P9WGZ1;P9WGY9;P9WGY7;P9WGY5;P9WGI5;P9WHJ5 …, internal_change|T151C;G292C|); assay: smFRET

| Molecule | stoichiometry N [1] | stoichiometry N [2] | binding result [3] | binding result [4] |
| --- | --- | --- | --- | --- |
| M. tuberculosis Eσ^B holoenzyme (from UniProt P9WGZ1;P9WGY9;P9WGY7;P9WGY5;P9WGI5) (complex) | 2 | 8 | – | – |
| TGCGTATAATGTGTGGA (ssDNA) [-10 ssDNA (unlabelled)] | – | – | binds | binds |
